The target in one data set is PyrH (Streptomyces rugosporus, UniProt A4D0H5). Nature of the data set: LC-MS of 5-chlorotryptophan in transformed C. roseus hairy roots. The note with it: with RebF reductase, chloride; in planta. In kind it is cell-based.
In another data set the target is T1, RebH (Lentzea aerocolonigenes, UniProt Q8KHZ8).
T1 sequence (Q8KHZ8 1-530): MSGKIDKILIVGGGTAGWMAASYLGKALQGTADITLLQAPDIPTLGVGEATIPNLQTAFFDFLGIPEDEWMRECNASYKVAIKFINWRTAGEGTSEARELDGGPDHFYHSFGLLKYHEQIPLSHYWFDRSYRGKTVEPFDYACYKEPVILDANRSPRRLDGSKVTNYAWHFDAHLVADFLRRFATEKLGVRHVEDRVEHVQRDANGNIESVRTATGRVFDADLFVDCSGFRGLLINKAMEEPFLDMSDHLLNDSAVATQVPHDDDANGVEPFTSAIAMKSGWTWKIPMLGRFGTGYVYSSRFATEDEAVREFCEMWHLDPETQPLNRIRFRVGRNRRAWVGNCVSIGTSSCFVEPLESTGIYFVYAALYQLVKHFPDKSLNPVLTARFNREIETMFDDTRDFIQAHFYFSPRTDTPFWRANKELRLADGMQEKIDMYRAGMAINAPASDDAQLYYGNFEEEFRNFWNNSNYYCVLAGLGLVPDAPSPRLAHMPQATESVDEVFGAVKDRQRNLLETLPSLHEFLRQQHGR
Nature of the data set: LC-MS of 7-chlorotryptophan in transformed C. roseus hairy roots. It counts as cell-based. The note with it: with RebF reductase, chloride; in planta.

Substrate in data set [1]: N[C@@H](Cc1c[nH]c2ccccc12)C(=O)O
Description: in vitro steady-state kinetics of decarboxylation. In kind it is biochemical, Catharanthus roseus.

Substrate in data set [2]: N[C@@H](Cc1c[nH]c2c(Cl)cccc12)C(=O)O
Description: in vitro steady-state kinetics of decarboxylation. It counts as biochemical, Catharanthus roseus.

Substrate in data set [3]: N[C@@H](Cc1c[nH]c2ccc(Cl)cc12)C(=O)O
Description: in vitro steady-state kinetics of decarboxylation. In kind it is biochemical, Catharanthus roseus.

We go through 2 molecules from paper PMC3058899 (Nature, 2010).

PyrH, sequence (A4D0H5 whole entry): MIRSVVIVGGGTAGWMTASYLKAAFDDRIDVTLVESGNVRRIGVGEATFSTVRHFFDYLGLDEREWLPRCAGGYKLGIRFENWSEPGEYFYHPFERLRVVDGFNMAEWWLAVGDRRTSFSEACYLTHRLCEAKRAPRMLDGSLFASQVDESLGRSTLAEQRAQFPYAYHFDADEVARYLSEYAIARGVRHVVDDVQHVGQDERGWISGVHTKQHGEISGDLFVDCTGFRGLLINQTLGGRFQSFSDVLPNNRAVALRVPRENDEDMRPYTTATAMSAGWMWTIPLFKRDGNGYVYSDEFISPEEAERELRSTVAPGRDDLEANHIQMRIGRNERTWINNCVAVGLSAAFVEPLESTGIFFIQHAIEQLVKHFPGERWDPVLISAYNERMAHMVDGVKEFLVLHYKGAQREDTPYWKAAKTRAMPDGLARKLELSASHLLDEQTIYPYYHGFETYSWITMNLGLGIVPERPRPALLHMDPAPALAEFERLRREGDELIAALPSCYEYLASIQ

Regarding `N[C@@H](Cc1c[nH]c2ccccc12)C(=O)O` [compound 1, tryptophan], the “LC-MS of 5-chlorotryptophan in transformed C. roseus hairy roots” value on PyrH is listed as “we observed accumulation of 5-chlorotryptophan 1b”. Besides, at RebH, the “LC-MS of 7-chlorotryptophan in transformed C. roseus hairy roots” value is “formation of chlorinated tryptophan 1a and 1b and chlorinated alkaloids in both the RebH/RebF”.

B1: tryptophan decarboxylase (C. roseus) (Catharanthus roseus) (protein)
chain: MGSIDSTNVAMSNSPVGEFKPLEAEEFRKQAHRMVDFIADYYKNVETYPVLSEVEPGYLRKRIPETAPYLPEPLDDIMKDIQKDIIPGMTNWMSPNFYAFFPATVSSAAFLGEMLSTALNSVGFTWVSSPAATELEMIVMDWLAQILKLPKSFMFSGTGGGVIQNTTSESILCTIIAARERALEKLGPDSIGKLVCYGSDQTHTMFPKTCKLAGIYPNNIRLIPTTVETDFGISPQVLRKMVEDDVAAGYVPLFLCATLGTTSTTATDPVDSLSEIANEFGIWIHVDAAYAGSACICPEFRHYLDGIERVDSLSLSPHKWLLAYLDCTCLWVKQPHLLLRALTTNPEYLKNKQSDLDKVVDFKNWQIATGRKFRSLKLWLILRSYGVVNLQSHIRSDVAMGKMFEEWVRSDSRFEIVVPRNFSLVCFRLKPDVSSLHVEEVNKKLLDMLNSTGRVYMTHTIVGGIYMLRLAVGSSLTEEHHVRRVWDLIQKLTDDLLKEA
Regarding B1, the Km in data set [1] was 51.7 ± 9.2 µM; in data set [2] it was 499 ± 74 µM; in data set [3] it was 538 ± 48 µM. Besides, the catalytic constant (kcat) was found to be 0.085 ± 0.0017 s⁻¹ in data set [1], 0.0267 ± 0.00067 s⁻¹ in data set [2] and 0.0417 ± 0.0013 s⁻¹ in data set [3].
